PMC5587573

Biological target: T1, Escherichia coli trigger factor (Escherichia coli), P0A850
T1 chain: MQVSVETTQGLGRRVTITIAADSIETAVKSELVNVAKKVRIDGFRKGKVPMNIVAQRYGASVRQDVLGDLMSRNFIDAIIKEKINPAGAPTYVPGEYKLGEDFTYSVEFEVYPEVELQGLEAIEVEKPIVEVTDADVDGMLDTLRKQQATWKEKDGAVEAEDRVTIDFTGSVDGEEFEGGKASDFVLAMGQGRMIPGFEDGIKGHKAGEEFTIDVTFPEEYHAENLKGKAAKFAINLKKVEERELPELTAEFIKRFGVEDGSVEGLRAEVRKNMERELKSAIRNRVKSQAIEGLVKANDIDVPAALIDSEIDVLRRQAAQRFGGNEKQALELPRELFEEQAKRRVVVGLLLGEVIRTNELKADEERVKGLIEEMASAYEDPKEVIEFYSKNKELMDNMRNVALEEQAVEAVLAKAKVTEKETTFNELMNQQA
Test: SAXS (static); five to eight protein concentrations; 20 mM Tris pH 7.5, 150 mM KCl; 20 °C; BM29 beamline, ESRF; self-association
Settings: remark: other sources report otherwise

- stoichiometry N: 2
B1: Escherichia coli trigger factor, P0A850 1-432 (natural protein)
chain: MQVSVETTQGLGRRVTITIAADSIETAVKSELVNVAKKVRIDGFRKGKVPMNIVAQRYGASVRQDVLGDLMSRNFIDAIIKEKINPAGAPTYVPGEYKLGEDFTYSVEFEVYPEVELQGLEAIEVEKPIVEVTDADVDGMLDTLRKQQATWKEKDGAVEAEDRVTIDFTGSVDGEEFEGGKASDFVLAMGQGRMIPGFEDGIKGHKAGEEFTIDVTFPEEYHAENLKGKAAKFAINLKKVEERELPELTAEFIKRFGVEDGSVEGLRAEVRKNMERELKSAIRNRVKSQAIEGLVKANDIDVPAALIDSEIDVLRRQAAQRFGGNEKQALELPRELFEEQAKRRVVVGLLLGEVIRTNELKADEERVKGLIEEMASAYEDPKEVIEFYSKNKELMDNMRNVALEEQAVEAVLAKAKVTEKETTFNELMNQQA
